Measurements as given in paper PMC9988990.

How the values were obtained:
Assay in all cases: SEC; Superose 6 10/300 in 10 mM Tris, 100 mM NaCl, pH 8.0, after StrepTactin affinity purification; peak of the trimeric ectodomain
[1] = biological target: recombinant gorilla GII FV Env ectodomain variant mut2 (R356A/R369A) (simian foamy virus, gorilla (genotype II))
[2] = biological target: recombinant gorilla GII FV Env ectodomain, wild type (simian foamy virus, gorilla (genotype II))
[3] = biological target: recombinant gorilla GII FV Env ectodomain variant mut1 (K342A/R343A) (simian foamy virus, gorilla (genotype II))

“recombinant gorilla GII FV Env ectodomain variant mut2 (R356A/R369A) (domain or fragment)” showed a stoichiometry N [1] of 3.

Substance “recombinant gorilla GII FV Env ectodomain, wild type (domain or fragment)” has a stoichiometry N [2] of 3.

“recombinant gorilla GII FV Env ectodomain variant mut1 (K342A/R343A) (domain or fragment)” was tested, and the stoichiometry N [3] was 3.
